Measurements published in patent publication US5962253A, “Oxidative decarboxylation of peptides catalyzed by flavoprotein EpiD” (Boehringer Ingelheim International GmbH, priority 1996, dated 1999).
Non-standard residues stand in square brackets, D forms with d. No end group written: not given here. hCys = N[C@@H](CCS)C(=O)O

Assays:
EpiD = EpiD (Staphylococcus epidermidis, UniProt P30197); details: cited from earlier work; for Reaction with EpiD: reducing conditions, reversed phase chromatography and ES-MS
flavoprotein EpiD [1] = target: T1, flavoprotein EpiD (Staphylococcus epidermidis, UniProt P30197); test: EpiD enzyme assay, oxidative decarboxylation of single peptides (reversed phase chromatography, ES-MS); format: biochemical, Staphylococcus epidermis; design: key to Reaction with EpiD: +: reaction with EpiD; -: no reaction with EpiD occurred, this indicates that using the given assay conditions, no reaction product was detected; details: for Reaction with EpiD: single peptide determinations, 0.5-1 h at 37° C., pH 8.0, 3 mM dithiothreitol; for substrate of EpiD / reaction with EpiD (in words): single peptides
T1 construct: made in house; host or cells: E. coli K38 (pGP1-2, pT7-5epiD)
Description: For the determination of the minimal size of the substrate, synthetic peptides with increasingly larger deletions of the amino terminus were used (Table 1). Reaction products were identified by their increasing hydrophobicity, increased absorption at 260 nm in 0.1% trifluoroacetic acid/H2 O/acetonitrile (FIGS. 19A and 19B), and the mass decrease of 46 Da as compared with the unmodified peptides. […] For a further study of the substrate specificity of EpiD, the heptapeptide SFNSYCC (SEQ ID NO: 2) was used. The serine and cysteine residues of the peptide SFNSYCC (SEQ ID NO: 2) form the COOH-terminal bicyclus of mature epidermin, and the possibility could not be excluded that amino acid exchanges in this peptide have an influence on the reaction with EpiD.
The method of the invention, which provides for the oxidative decarboxylation of a peptide, can be carried out in vitro under the following conditions, although it will be clear to those of ordinary skill in the art that the parameters given herein for carrying out the enzymatic reaction may be varied. The enzymatic reaction can be carried out at a temperature of 37° C. in 20 mMTris/HCl buffer (pH 8.0) containing 3 mM dithiothreitol, 1-2 μg of EpiD (the concentration of which is determined according to the method of Bradford, Anal. Biochem. 72:248-254 (1976)), and 10-50 μg of peptide, in a total volume of 1 ml. The enzymatic reaction is carried out for between 0.5 and 1 h.
Purification of EpiD and Enzyme Assay--EpiD was purified as described previously using E. coli expression plasmid pT7-5apiD (Kupke, T. et al, J. Bacteriol. 174:5354-5361 (1992)). The concentration of the EpiD solution was determined according to Bradford (Bradford, M. M., Anal. Biochem. 72:248-254 (1976)); the concentrations of the precursor peptide solutions were estimated by the absorbance at 205 nm using an extinction coefficient of 31 for a protein solution of 1 mg/ml (Janson, J. C., & Ryden, L., Methods Enzymol. 193:441-455 (1990)); the synthetic peptic substrates were weighed out. The enzyme was assayed for 0.5-1 h at 37° C. in 20 mM Tris/HCl buffer (pH 8.0) containing 3 mM dithiothreitol, 1-2 μg of EpiD, and 10-25 μg of precursor peptide or 50 μg of synthetic peptide in a total volume of 1 ml. The reaction mixture was then separated by reversed phase chromatography using a μRPC C2/C18 SC 2.1/10 column (Pharmacia Biotech Inc.). Peptides were eluted with a linear gradient of 0-50% acetronitrile, 0.1% trifluoroacetic acid in 3.8 ml with a flow rate of 200 μl/min. The absorbance was measured simultaneously at 214, 260, and 280 nm. The peptides were collected by the peak fractionation method, dried with a vacuum concentrator, stored at -70° C., dissolved in 30% acetonitrile, and analyzed by ES-MS.

[2] = Determination of the isoelectric point by isoelectric focusing and immunoblot; format: physicochemical; details: most basic band used
Protocol: Therefore, the modified peptides should be more basic than the educts. In order to verify this hypothesis, the isoelectric points of the products and the educts were determined. […] All of the bands were more basic than the educts, and for determination of the isoelectric points, the most basic bands were used. In the case of EpiAR-1Q -46 Da, the most basic band was the most intense band.
The peptide mixture Serva No. 39211 was used as an isoelectric focusing standard. Isoelectric focusing was carried out according to the instruction manual of Serva. The focused peptides were blotted on nitrocellulose and detected with an anti-MBP-EpiA antiserum (Kupke, T., et al., FEMS Lett. 112:43-48 (1993)) using the ECL system (Amersham Corp.).

flavoprotein EpiD [3] = target: T1, flavoprotein EpiD; test: Incubation of peptide libraries with EpiD, ES-MS and neutral loss mass spectrometry; format: biochemical, Staphylococcus epidermis; details: ES-MS and neutral loss scans
Protocol: Heptapeptide sublibraries with one variable amino acid residue (wherein the variable amino acid residue can be any one of the 20 common amino acids Ala, Arg, Asn, Asp, Cys, Gln, Glu, Gly, His, Ile, Leu, Lys, Met, Phe, Pro, Ser, Thr, Trp, Tyr, or Val) at positions 1-7 of the peptide substrate S^1 FNSYCC^7 (SEQ ID NO: 2) were synthesized and incubated with EpiD. Peptides were identified by their masses using product ion scans and neutral loss scans and by comparison of the mass spectra obtained after various incubation times. The heptapeptides with a single amino acid substitution at positions 1-4 were substrates of EpiD (Table 2). At positions 5-7 of the peptide, not all amino acid residues were possible, so the last three amino acids determined the substrate specificity for EpiD (Table 2). […]
Peptide libraries were dissolved to a concentration of 1-2 mg/ml in 20 mM Tris/HCl buffer (pH 8.0) containing 3 mM dithiothreitol. […] Neutral loss scans were recorded after 3 h of incubation.
Electrospray and Tandem Mass Spectrometry--Electrospray mass spectra (Bruins, A. P., et al., Anal. Chem. 59:2642-2646 (1987); Covey, T. R., et al., Rapid Commun. Mass Spectrom. 2:249-256 (1988)) were recorded on a triple quadrupole mass spectrometer API III with a mass range of m/z 10-2400 equipped with a nebulizer-assisted electrospray ("ion spray") source (Sciex, Thornbill, Ontario, Canada). […]

T1 sequence (P30197 whole entry): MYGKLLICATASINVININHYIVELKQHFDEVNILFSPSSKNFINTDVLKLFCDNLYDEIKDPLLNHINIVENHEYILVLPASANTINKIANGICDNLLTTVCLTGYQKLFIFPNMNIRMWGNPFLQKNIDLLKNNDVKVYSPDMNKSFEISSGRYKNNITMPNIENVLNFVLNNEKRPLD
EpiD, sequence (P30197 whole entry): as above

| Molecule | Reaction with EpiD (flavoprotein EpiD [1]) | substrate of EpiD / reaction with EpiD (in words) (flavoprotein EpiD [1]) | further results |
| --- | --- | --- | --- |
| [Zn+2] [Zn^2+, reference compound] |  |  | effect on the EpiD reaction (EpiD): inhibited |
| EpiAC + 22S (MEAVKEKNDLFNLDVKVNAKESNDSGAEPRIASKFICTPGCAKTGSFNSYCC) | - | No reaction occurred |  |
| EpiAR-1Q: mutated EpiA with a mutation in the cleavage sequence of the EpiA leader (MEAVKEKNDLFNLDVKVNAKESNDSGAEPRIASKFICTPGCAKTGSFNSYCC) | + |  | isoelectric point [2]: 5.0 pH; Reaction with EpiD (EpiD): reacts |
| EpiAS + 19A (MEAVKEKNDLFNLDVKVNAKESNDSGAEPRIASKFICTPGCAKTGSFNSYCC) | + | substrate for oxidative decarboxylation |  |
| EpiAdesC^+22 (MEAVKEKNDLFNLDVKVNAKESNDSGAEPRIASKFICTPGCAKTGSFNSYC) | - | not all peptides with a COOH-terminal cysteine residue were a substrate of EpiD |  |
| K-EpiA (MEAVKEKNDLFNLDVKVNAKESNDSGAEPRIASKFICTPGCAKTGSFNSYCC) | + |  |  |
| Proepidermin: COOH-terminal proepidermin fragment of EpiA (amino acids +1 to +22) (IASKFICTPGCAKTGSFNSYCC) | + |  | Reaction with EpiD (EpiD): reacts |
| SFNSMCC |  |  | substrate of EpiD / reaction product in library (in words) (flavoprotein EpiD [3]): weak |
| SFNSYCC--NH2 (SFNSYCC-NH2; cysteine pairing not given here) [the amide of SFNSYCC] | - | not substrates of EpiD |  |
| SFNSYCHCy (SFNSYC[hCys]; cysteine pairing not given here) [peptide SFNSYC with COOH-terminal homocysteine residue] | - | not substrates of EpiD |  |
| SFNSYGC | - |  |  |
| Synthetic proepidermin: chemically synthesized proepidermin (amino acids +1 to +22 of EpiA) (IASKFICTPGCAKTGSFNSYCC) | + |  |  |
